Changes are numbered by the printed parent chain. Blank lines part the entries; values can stand above or below the binder they belong to.
Target: T1, LRRC15 on U-87 MG (LRRC15+) cells (UniProt Q8TF66 22-581, limits assumed)
T1 construct: whole, on cells; also called cell surface LRRC15
T1 sequence (looked up): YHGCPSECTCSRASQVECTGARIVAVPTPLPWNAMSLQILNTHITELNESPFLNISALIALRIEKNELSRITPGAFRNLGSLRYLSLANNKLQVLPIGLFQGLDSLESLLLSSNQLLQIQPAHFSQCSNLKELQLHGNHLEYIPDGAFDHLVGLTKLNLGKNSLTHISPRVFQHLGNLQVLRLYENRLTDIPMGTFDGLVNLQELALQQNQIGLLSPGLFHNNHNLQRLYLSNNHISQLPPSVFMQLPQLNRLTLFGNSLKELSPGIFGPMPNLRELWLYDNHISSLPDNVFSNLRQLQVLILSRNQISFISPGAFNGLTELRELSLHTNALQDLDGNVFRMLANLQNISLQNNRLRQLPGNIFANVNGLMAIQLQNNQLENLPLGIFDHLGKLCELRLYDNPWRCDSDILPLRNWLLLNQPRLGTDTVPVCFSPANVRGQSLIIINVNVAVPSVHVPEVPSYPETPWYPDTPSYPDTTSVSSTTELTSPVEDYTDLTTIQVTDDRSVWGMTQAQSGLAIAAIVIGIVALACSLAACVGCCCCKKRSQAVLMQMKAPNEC
Experiment: flow cytometry on U-87 MG (LRRC15+) cells; the text of Example 22 calls the fitted value a dissociation constant KD
Procedure: Binding affinity of selected LRRC15 pH engineered antibody variants from Example 9 were measured on U-87 MG (LRRC15+) cells. 100,000 U-87 MG cells (ATCC HTB-14) were seeded per well in a 96 well deep well plate. Samrotamab and a pH engineered antibody variant were serially diluted at a 1:3 dilution in ice cold FC buffer (phosphate buffered saline (PBS), pH 7.4+2 mM ethylenediaminetetraacetic acid (EDTA)+2% (v/v) HI FBS). The plates were spun at 2,000 RPM for 2 minutes, the supernatant was removed, and 100 μL of diluted antibody was added to each well with final concentration ranging from 60 nM to 1 pM and incubated for 2 hours at 4° C. Post incubation, the cells were spun at 2000 rpm for 2 min and supernatant was discarded. Cells were washed twice with 500 μL of ice-cold FC buffer and resuspended with 100 μL of FC buffer. The cells were then transferred from the deep well plate to 96 well round bottom plate, spun at 2000 rpm for 2 min and incubated with 100 μL of 10 μg/mL Alexa Fluor 488 conjugated goat anti-human IgG secondary antibody (ThermoFisher Scientific, A11013) for 30 min. Post incubation, cells were washed with FC buffer and resuspended in 100 μL of FC buffer to read on a BD Accuri C6 flow cytometer. Binding affinity was measured as a dissociation constant KD by GraphPad Prism assuming Michaelis-Menten binding kinetics.

IC50: 0.228 nM
B1: samrotamab (antibody, V domains shown)
VH: EVQLVQSGAEVKKPGASVKVSCKASGYKFSSYWIEWVKQAPGQGLEWIGEILPGSDTTNYNEKFKDRATFTSDTSINTAYMELSRLRSDDTAVYYCARDRGNYRAWFGYWGQGTLVTVSS
VL: DIQMTQSPSSLSASVGDRVTITCRASQDISNYLNWYQQKPGGAVKFLIYYTSRLHSGVPSRFSGSGSGTDYTLTISSLQPEDFATYFCQQGEALPWTFGGGTKVEIK
notes: IgG; also called MYT0963

IC50: 0.484 nM
B2: MYT0971 (antibody, V domains shown)
VH: B1 VH with W33H
VL: B1 VL
notes: IgG

Source: patent US20220348679A1 (MYTHIC THERAPEUTICS, published 2022)
